{"source": "patent US20180195056", "key": {"[1]": {"test_system": "His14-xlGATE16-MBP"}, "[2]": {"test_system": "His14-xlLC3B-MBP"}}}
{"substance": "wheat (Triticum) Atg4 ortholog (trAtg4)", "values": [{"measurement": "protease concentration for significant cleavage, against its cognate substrate trAtg8 and the yeast substrate", "setting": "[1]", "result": "the Xenopus xlGATE16 substrate required drastically (>100-fold) higher trAtg4 concentrations for significant cleavage"}, {"measurement": "substrate cleavage in protease titration (100 µM substrate, 1 h, 25° C.)", "setting": "[2]", "result": "xlLC3B cleavage by trAtg4 was only barely detectable"}]}
